Measured values from the nanobody polyreactivity screen of Harvey et al. (2022).

Assay: yeast display, Sf9 membrane polyspecificity reagent, FACS + sequencing; frameworks hold sequencing errors
Procedure, shortened: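 Using colony PCR, genes from sorted yeast display clones were amplified, then sequenced on MiSeq at 2 × 250 and filtered by CDR length. The clones had been stained with 10% biotinylated, detergent-solubilized Sf9 membrane reagent for 1 hour at 4 °C and sorted by FACS into low and high (top ~1%) gates on anti-HA and streptavidin fluorescence. Polyreactivity labels come from the gate of origin.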

Sequence	polyreactivity (PSR sort gate)
QVQLVESGGGLVQAGGSLRLSCAASGNIFANYAMGWYRQAPGKERELVAAIRWSASRTYYADSVKGRFTISRDNAKNTVYLQMNSLIPEDTAVYYCAATIYTFWDYYYDYWGQGTQVTVSS	high polyreactivity
QVQLVESGGGLVQAGGSLRLSCAASGNIFAPNAMGWDRQAPGKERELVAAISRSGGSTHYADSVKGRFTISRDNAKNTVYLQMNSLKPEDTAVYYCAAGWYGRYTSKMGYWGQGTQVTVSS	high polyreactivity
QVQLVESGGGLVQAGGSLRLSCAASGNIFAWYAMGWYRQAPGKERELVADISSRGGSSYYADSVKGRFTISRDTAKNTVYLQMNSLKPEDTAVYYCAAVWYWTQDYDYWGQGTQVTVSS	low polyreactivity
QVQLVESGGGLVQAGGSLRLSCAASGNIFDGNAMGWYRQAPGKERELVAAITSSGDSTYYADSVKGRFTISRDNAKNTVYLLMNSLKPEDTAVYYCAAGYRWGYYYWGQGTQVTVSS	high polyreactivity
QVQLVESGGGLVQAGGSLRLSCAASGNIFDGNSMGWYRQAPGKERELVAAITGRGGGTYYADSVKGRFTISRDNAKNTVYLQMNSLKPEDTAVYYCAAPWVVRRTAYDYWGQGTQVTVSS	high polyreactivity
QVQLVESGGGLVQAGGSLRLSCAASGNIFDIYAMGWYRQAPGKERELVAAISSGGSTYYADSVKGRFTISRDNAKNTVYFQMNSLKPEDTAVYYCAESRVGYYRYEYWGQGTQVTVSS	low polyreactivity
QVQLVESGGGLVQAGGSLRLSCAASGNIFDIYAMGWYRQAPGKERELVAAITSGVRTYYADSVKGLFTISRDNAKNTVYLQMNSVKPEDTAVYYCATPSPHVGLKWEYDYWGQGTQVTVSS	low polyreactivity
QVQLVESGGGLVQAGGSLRLSCAASGNIFDQNAMGWYRQAPAKERELVAAITRSGSTTYYADSVKGRFTISRDNAKNTVYLQMNSLKPEDTAVYYCAAKVYAYRTYKMYYWGEGTQVTVSS	high polyreactivity
QVQLVESGGGLVQAGGSLRLSCAASGNIFDYYAMGWYRQAPGKERELVAAISTGTSTYADSVKGRFTISRDNAKNTVYLQMNSVKPEDTAVYYCASDVGIRPLNYHPYNYWGQGTQVTVSS	low polyreactivity
QVQLVESGGGLVQAGGSLRLSCAASGNIFFSNAMGWYRQAPGKERELLASISQSGGSTYYADSVKGRFTISRDNAKNTVYLQMNSLKPEDTAVYYCAATQVRRGPAWGRDYWGQGTQVTVSS	low polyreactivity
QVQLVESGGGLVQAGGSLRLSCAASGNIFGRYAMGWYRQAPGKERELVAAINWSGGSTNYADSVKGRFTISRDNAKNTVYLQMNSLKPEDTAVYYCAADYYYSLISNQYKYGQRNFDYWGQGTQVTVSS	low polyreactivity
QVQLVESGGGLVQAGGSLRLSCAASGNIFGRYAMGWYRQAPGKERELVAAISWSGGSTFYADSVKGRFTISRDNAKNTVYLQMNSLKPEDTAVYYCAAEYWVYDSYWFDYDYWGQGTQVTVSS	high polyreactivity
QVQLVESGGGLVQAGGSLRLSCAASGNIFGYNAMGWYRQAPGKERELVAAITSDGRTYYADSVKGRFTISRDNAKNTVYLQMNSLKPEDTAVYYCAADSSGYYWFNYWGQGTQVTVSS	low polyreactivity
QVQLVESGGGLVQAGGSLRLSCAASGNIFLSYAMGWYRQAPGKERELVAGISASGGRTYYADSVKGRFTISRDNAKNTVYLQMNSLKPEDTAVYYCATRNTRFHLDYWGQGTQVNVSS	high polyreactivity
QVQLVESGGGLVQAGGSLRLSCAASGNIFLYYAMGWYRQAPGNERELVADIDSSGASTYYADSVKGRFTISRDNAKNTVYFQMNSLKPEDTAVYYCASEFHWWYAGYDYGYWGQGTQVTVSS	low polyreactivity
QVQLVESGGGLVQAGGSLRLSCAASGNIFNGNAMGWYRQAPGKERELVAAIRGNGGITYYADSVKGRFTISRDNAKNTVYLQMNSLKPEDTAVYYCAVRSAWVYGIGRYYWGQGTQVTVSS	high polyreactivity
QVQLVESGGGLVQAGGSLRLSCAASGNIFPYNAMAWYRQAPGKERELVATISSGGSTYYADSVKGRFTISRDNAKNTVYLQMNSLKPEDTAVYYCAARGRYPYRYGYWGQGTQVTVSS	high polyreactivity
QVQLVESGGGLVQAGGSLRLSCAASGNIFRANPMGWYRQAPGKERELVASITVSGGSTNYADSVKGRFTISRDNAKNTVYLQMNSLKPEDTAVYYCAKTLTRSVKFSTVLLGPTPDYYWGQGTQVTVSS	high polyreactivity
QVQLVESGGGLVQAGGSLRLSCAASGNIFRGYTMGWYRQAPGKERELVATITWNGVSTFYADSVKGRFTISRDNAKNTVYLQMNSLKPEDTAVYYCAAYYPSHDYSGFWSDTYEYWGQVTQVTVSS	low polyreactivity
QVQLVESGGGLVQAGGSLRLSCAASGNIFRGYTMGWYRQAPGKERELVAVISFGDGGTYYADSVKGRFTISRDNAKNTVYLQMNSLKPEDTAVYYCATDYQSTSVWGGHFVINPYDYWGQGTQVTVSS	low polyreactivity
QVQLVESGGGLVQAGGSLRLSCAASGNIFRNNAMGWYRQAPGKERELVAAISRGGSTYYADSVKGRFTISRDNAKNTVYLQMNSLKPEDTAVYYCNKYSSRAYNYWGQGTQVTVSS	high polyreactivity
QVQLVESGGGLVQAGGSLRLSCAASGNIFSDNAMGWYRQAPGKESELVAAITSGGSTNYADSVKGRFTISRDNAKNTVYLQMNSLKPEDTAVYYCAADISYRHFLFDYWGQGTQVTVSS	low polyreactivity
